Experimental data taken from the RNAGym collection of RNA variant scans (doi:10.7554/elife.80360).

B1: HDV Ribozyme (parent)
chain: GGCCGGCAUGGUCCCAGCCUCCUCGCUGGCGCCGGCUGGGCAACAUUCCGAGGGGACCGUCCCCUCGGUAAUGGCGAAUGGGACCCA

Variants of: B1
Test: self-cleavage, relative activity (ratio to wild type); higher = more cleavage; co-transcriptional
In the case of G1C C41U, the self-cleavage is reported as 0.229.
Work on G29C G55C yielded a self-cleavage of 0.0332.
Work on G2C U37C yielded a self-cleavage of 0.17.
C4U G6U showed a self-cleavage of 0.219.
For G2C C64G, the self-cleavage was 0.0804.
In the case of U27A U79C, the self-cleavage is reported as 0.201.
In the case of C18U C64A, the self-cleavage is reported as 0.332.
With A56U G68U the self-cleavage was 1.01.
Work on U23C C33G yielded a self-cleavage of 0.
G39U C58G showed a self-cleavage of 0.506.
C32A A42U gave a self-cleavage of 0.166.
In the case of G6C C7G, the self-cleavage is reported as 0.475.
With G76A G81A the self-cleavage was 0.332.
G25C G54U gave a self-cleavage of 0.0652.
For G50A G53C, the self-cleavage was 0.759.
C22A U79C gave a self-cleavage of 0.18.
Work on C62A C85A yielded a self-cleavage of 0.767.
G1U G74C gave a self-cleavage of 0.262.
Work on A8G U60C yielded a self-cleavage of 1.16.
With C32G C33G the self-cleavage was 0.0906.
With C49G A87C the self-cleavage was 0.672.
Work on A56C U72C yielded a self-cleavage of 0.539.
C13G U46A showed a self-cleavage of 0.0615.
Work on C24A G50A yielded a self-cleavage of 0.688.
Variant G29C G34C has a self-cleavage of 0.125.
Variant U27G G31U has a self-cleavage of 0.293.
Work on G5C A70G yielded a self-cleavage of 0.158.
C24U G81C showed a self-cleavage of 0.111.
Work on C24U G55U yielded a self-cleavage of 0.698.
With C63A A83G the self-cleavage was 0.712.
With C21U G59U the self-cleavage was 0.288.
For G25U C84G, the self-cleavage was 0.17.
Variant G29C C84U has a self-cleavage of 0.032.
For C63U C75A, the self-cleavage was 0.106.
With C21G U27C the self-cleavage was 0.217.
C4G G6A gave a self-cleavage of 0.
With G2U C33U the self-cleavage was 0.0422.
With U12G A78G the self-cleavage was 0.612.
C14U C58G showed a self-cleavage of 1.17.
For G59A C85A, the self-cleavage was 1.1.
Variant C75A A83U has a self-cleavage of 0.151.
Variant C41G A56U has a self-cleavage of 0.746.
G50A A51U showed a self-cleavage of 0.763.
Work on A16G C49U yielded a self-cleavage of 1.23.
For C3U G10U, the self-cleavage was 0.372.
In the case of C4G U60A, the self-cleavage is reported as 0.332.
G54U A71U gave a self-cleavage of 0.987.
For A45U U46A, the self-cleavage was 0.639.
A56G C85U showed a self-cleavage of 1.02.
For G53U A78C, the self-cleavage was 0.229.
Work on U9A G67U yielded a self-cleavage of 0.849.
G5U C13A showed a self-cleavage of 0.217.
With U37A A56U the self-cleavage was 0.332.
In the case of G81U C85U, the self-cleavage is reported as 0.31.
Work on G17C C32A yielded a self-cleavage of 0.
Variant C21U G54A has a self-cleavage of 0.159.
In the case of G10U A42C, the self-cleavage is reported as 0.149.
G55A U65G gave a self-cleavage of 1.09.
Variant C3G A42G has a self-cleavage of 0.138.
G29A G80C showed a self-cleavage of 0.145.
For C7U C48U, the self-cleavage was 0.997.
A45G C84G gave a self-cleavage of 0.623.
Variant G11U G29A has a self-cleavage of 0.158.
For C3U G73C, the self-cleavage was 0.304.
Variant G11U U69C has a self-cleavage of 0.161.
With G31U G73C the self-cleavage was 0.
Work on G29C U72G yielded a self-cleavage of 0.208.
G11A C64U showed a self-cleavage of 0.249.
G25C C58U gave a self-cleavage of 0.0739.
With U60C U72A the self-cleavage was 0.755.
G6U G55C gave a self-cleavage of 0.495.
Variant G34A A71C has a self-cleavage of 0.0604.
Work on C48G A51U yielded a self-cleavage of 1.02.
C3G C61G showed a self-cleavage of 0.561.
U9C C33U gave a self-cleavage of 0.895.
In the case of C15A G74U, the self-cleavage is reported as 0.218.
In the case of C19A A45C, the self-cleavage is reported as 0.0755.
Work on G39C A42U yielded a self-cleavage of 0.227.
Work on U9A U20A yielded a self-cleavage of 0.185.
G53U C66G showed a self-cleavage of 0.821.
G31C C32A showed a self-cleavage of 0.0875.
Work on G34U A87G yielded a self-cleavage of 0.122.
In the case of G11A C30G, the self-cleavage is reported as 0.0225.
For C4U G67C, the self-cleavage was 0.739.
With G17U C75U the self-cleavage was 0.181.
G1C C22G gave a self-cleavage of 0.
In the case of C30U C64G, the self-cleavage is reported as 0.653.
Variant C13A C33A has a self-cleavage of 0.0396.
Work on C4A G73U yielded a self-cleavage of 0.
A45G C75A gave a self-cleavage of 0.249.
For U69C A77C, the self-cleavage was 0.612.
In the case of G35A G68C, the self-cleavage is reported as 0.676.
In the case of U27G C62U, the self-cleavage is reported as 1.02.
Work on C41G U60G yielded a self-cleavage of 0.72.
G1A G76C gave a self-cleavage of 0.185.
In the case of C63U G82C, the self-cleavage is reported as 0.192.
G5C C49U showed a self-cleavage of 0.0755.
G35C G74A showed a self-cleavage of 0.0779.
G38C G81A showed a self-cleavage of 0.
Variant G2C G5C has a self-cleavage of 0.237.
With C64U U65G the self-cleavage was 0.784.
Variant C66G C75A has a self-cleavage of 0.166.
In the case of G35A A56U, the self-cleavage is reported as 0.72.
C19G C36G showed a self-cleavage of 0.0264.
A8U C58U showed a self-cleavage of 1.15.
C30U C61U gave a self-cleavage of 0.719.
In the case of G34U U72A, the self-cleavage is reported as 0.151.
Variant G55A G73A has a self-cleavage of 0.812.
Work on C18A C84A yielded a self-cleavage of 0.151.
Work on C4A U65G yielded a self-cleavage of 0.26.
Work on C26U A56U yielded a self-cleavage of 1.12.
In the case of C15A G25C, the self-cleavage is reported as 0.0692.
G11C C44U gave a self-cleavage of 0.0437.
C7A C58G gave a self-cleavage of 0.705.
C15G U47C showed a self-cleavage of 0.128.
Variant G25A G53U has a self-cleavage of 0.179.
Variant G10U C24U has a self-cleavage of 0.427.
Variant A8C C64A has a self-cleavage of 0.639.
For G11U G54A, the self-cleavage was 0.313.
C4G A45G showed a self-cleavage of 0.201.
For C64G A70G, the self-cleavage was 0.712.
U60A C86G gave a self-cleavage of 0.851.
In the case of C57G A77U, the self-cleavage is reported as 0.923.
In the case of G2A G55A, the self-cleavage is reported as 0.191.
C7A G31A showed a self-cleavage of 0.87.
Variant G10C A77U has a self-cleavage of 0.0554.
Work on A43U U47C yielded a self-cleavage of 0.554.
C62A G80A gave a self-cleavage of 0.282.
With G2C G34A the self-cleavage was 0.0504.
Variant C7A A16C has a self-cleavage of 0.277.
In the case of G11C U69A, the self-cleavage is reported as 0.166.
Work on A51C C64A yielded a self-cleavage of 0.764.
C4A C18A gave a self-cleavage of 0.0277.
Variant C14G A71C has a self-cleavage of 0.208.
In the case of G28A C41U, the self-cleavage is reported as 0.0875.
A42U G82U gave a self-cleavage of 0.102.
Work on G35A G38A yielded a self-cleavage of 0.0923.
With A8G A43C the self-cleavage was 0.145.
G6U U79A showed a self-cleavage of 0.246.
For U69C G82U, the self-cleavage was 0.554.
G68A G81A showed a self-cleavage of 0.389.
With C58G C61A the self-cleavage was 1.14.
Work on C13U G40A yielded a self-cleavage of 0.365.
In the case of A8C C26A, the self-cleavage is reported as 0.629.
C26A G52U gave a self-cleavage of 0.798.
Work on C22G C57U yielded a self-cleavage of 0.089.
Work on C13A U69A yielded a self-cleavage of 0.277.
In the case of A8C G29A, the self-cleavage is reported as 0.18.
Work on A43C C75G yielded a self-cleavage of 0.314.
G55U C86A gave a self-cleavage of 0.911.
Work on C4G U72A yielded a self-cleavage of 0.0437.
In the case of C26U G55A, the self-cleavage is reported as 1.05.
A42U A70C showed a self-cleavage of 0.636.
G39U G52U gave a self-cleavage of 0.66.
For A16G C66G, the self-cleavage was 0.743.
Work on C36A G73A yielded a self-cleavage of 0.104.
U37C C49U gave a self-cleavage of 0.928.
For C7G A42C, the self-cleavage was 0.208.
In the case of C36A C48U, the self-cleavage is reported as 0.116.
Work on U27C G38U yielded a self-cleavage of 0.131.
For U27C G38A, the self-cleavage was 0.0978.
G6U C22U gave a self-cleavage of 0.136.
For C30A G40C, the self-cleavage was 0.0277.
C44G G82A gave a self-cleavage of 0.309.
G39C U69C showed a self-cleavage of 0.401.
In the case of C63A G68A, the self-cleavage is reported as 0.801.
G2C G6U showed a self-cleavage of 0.0601.
